Residue numbers refer to the chain shown, from its start.
T1: human BMPRII protein (Sino Biological, #10551-H08H) (human, UniProt Q13873 27-150)
T1 sequence (looked up): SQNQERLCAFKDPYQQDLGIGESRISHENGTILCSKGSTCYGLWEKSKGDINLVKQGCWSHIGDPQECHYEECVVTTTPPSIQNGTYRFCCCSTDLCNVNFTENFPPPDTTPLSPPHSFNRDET

B1: DGL627 (bispecific antibody)
chain 1: not shown
chain 2: EVQLLESGGGLVQPGGSLRLSCAASGFTFSDYYMTWIRQAPGKGLEWVSSISGGSTYYADSRKGRFTISRDNSENTLYLQMNSLRAEDTAVYYCARDFGVAGWFGQYGMDVWGQGTLVTVSSGGGGSGGGGSGGGGSQSVLTQPPSASGTPGQRVTISCTGSSSNIGAGYDVHWYQQLPGTAPKLLIYRSNQRPSGVPDRFSGSKSGTSASLAISGLRSEDEADYYCSSYAGNYNLVFGGGTKLTVLDKTHTCPPCPAPEAAGAPSVFLFPPKPKDTLMISRTPEVTCVVVDVSHEDPEVKFNWYVDGVEVHNAKTKPREEQYNSTYRVVSVLTVLHQDWLNGKEYKCKVSNKALPAPIEKTISKAKGQPREPQVCTLPPSRDELTKNQVSLSCAVKGFYPSDIAVEWESNGQPENNYKTTPPVLDSDGSFFLVSKLTVDKSRWQQGNVFSCSVMHEALHNHYTQKSLSLSPGWSHPQFEK
B2: DGL629 (bispecific antibody)
chain 1: not shown
chain 2: B1 chain 2
B3: DGL626 (bispecific antibody)
chain 1: not shown
chain 2: B1 chain 2
B4: DGL625 (bispecific antibody)
chain 1: not shown
chain 2: B1 chain 2
B5: DGL635 (bispecific antibody)
chain 1: B1 chain 2
chain 2: not shown
B6: DGL628 (bispecific antibody)
chain 1: not shown
chain 2: B1 chain 2
B7: DGL633 (bispecific antibody)
chain 1: not shown
chain 2: EVQLLESGGGLVQPGGSLRLSCAASGFTFSNAWMNWVRQAPGKGLEWVSSISSSSSYIYYADSVKGRFTISRDNSKNTLYLQMNSLRAEDTAVYYCARAVAAGGMFWGLDQWGQGTLVTVTSSGGGGSGGGGSGGGGSQSVLTQPPSASGTPGQRVTISCSGSRSNIGSNSVHWYQQLPGTAPKLLIYGNSNRPSGVPDRFSGSKSGTSASLAISGLRSEDEADYYCQSYDSSLNDHVVFGGGTKLTVLDKTHTCPPCPAPEAAGAPSVFLFPPKPKDTLMISRTPEVTCVVVDVSHEDPEVKFNWYVDGVEVHNAKTKPREEQYNSTYRVVSVLTVLHQDWLNGKEYKCKVSNKALPAPIEKTISKAKGQPREPQVCTLPPSRDELTKNQVSLSCAVKGFYPSDIAVEWESNGQPENNYKTTPPVLDSDGSFFLVSKLTVDKSRWQQGNVFSCSVMHEALHNHYTQKSLSLSPGWSHPQFEK
B8: DGL634 (bispecific antibody)
chain 1: not shown
chain 2: B7 chain 2
B9: DGL918 (bispecific antibody)
chain 1: not shown
chain 2: B1 chain 2 with Y33W, S55T, A101S
B10: DGL914 (bispecific antibody)
chain 1: not shown
chain 2: B1 chain 2 with T35N, R62V, Q106Y
B11: DGL915 (bispecific antibody)
chain 1: not shown
chain 2: B1 chain 2 with A101S
B12: DGL917 (bispecific antibody)
chain 1: not shown
chain 2: B1 chain 2 with S55T
B13: DGL916 (bispecific antibody)
chain 1: not shown
chain 2: B1 chain 2 with Y33W
B14: DGL912 (bispecific antibody)
chain 1: not shown
chain 2: B1 chain 2 with T35N, R62V, Y107F
B15: DGL913 (bispecific antibody)
chain 1: not shown
chain 2: B1 chain 2 with Y32S, T35S, R62V, W103Y

Target: T2, ALK-1/BMPR-2 receptor pair of the PathHunter U2Os dimerization cells (DiscoverX 93-0962C3) (UniProt P37023 22-503; Q13873 27-1038)
T2 sequence (P37023 22-503, one chain of several): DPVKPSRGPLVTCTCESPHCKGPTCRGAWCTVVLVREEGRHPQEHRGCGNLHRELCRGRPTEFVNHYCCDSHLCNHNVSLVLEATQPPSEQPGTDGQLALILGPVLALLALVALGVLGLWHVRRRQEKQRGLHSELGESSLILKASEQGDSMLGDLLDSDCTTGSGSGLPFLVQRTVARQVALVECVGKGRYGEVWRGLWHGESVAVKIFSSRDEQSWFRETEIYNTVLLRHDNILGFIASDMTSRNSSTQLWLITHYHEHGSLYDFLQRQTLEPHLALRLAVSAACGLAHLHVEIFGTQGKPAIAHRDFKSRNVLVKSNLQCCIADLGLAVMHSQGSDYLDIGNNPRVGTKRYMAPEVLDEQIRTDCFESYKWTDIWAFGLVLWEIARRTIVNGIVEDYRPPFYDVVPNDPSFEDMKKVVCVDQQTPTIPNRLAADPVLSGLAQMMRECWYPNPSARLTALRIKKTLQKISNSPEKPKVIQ
Assay: cell-based or functional assay

| Binder | % Emax BMP9 | Emax (RLU) |
| --- | --- | --- |
| B1 | 14% | 502000 RLU |
| B2 | 12% | 424000 RLU |
| B3 | 7% | 258000 RLU |
| B4 | 17% | 615000 RLU |
| B5 | 141% | 2.61e+06 RLU |
| B6 | 24% | 884000 RLU |
| B7 | 32% | 586000 RLU |
| B8 | 16% | 288000 RLU |

Target: T1, human BMPRII protein (Sino Biological, …)
Assay: ELISA, coated human BMPRII
Experimental: (§1) These binders were then tested using an ELISA assay. High binding plates (Corning, 9018) were coated with either 2 μg/ml of human BMPRII protein (Sino Biological, #10551-H08H) or 2 μg/ml of human ALK1 protein (Sino Biological, #10066-H08H) overnight at 4C. The plates were then washed three times with wash buffer (R&D Systems, WA126). […] The plates were then washed three times with wash buffer and DGL antibodies or controls, which were diluted with PBS and 0.1% BSA. The antibodies were incubated for one hour at room temperature and then the plates were washed three times with wash buffer. The plates were then incubated with mouse anti-human IgG Fc secondary—HRP (diluted with PBS/0.1% BSA); 100 ul per well at 2 μg/ml and incubated at room temperature for one hour. The plate was washed three times in wash buffer and then 100 ul TMB (R&D Systems, DY9998B, substrate reagent pack). After the wells turn blue, 50 ul of stop solution (R&D Systems, DY994) was added to each well and the absorbance of the plate was read at 450 nm. results can be found in Table 8.

| Binder | Abs450 1 nM | Abs450 10 nM | Abs450 100 nM |
| --- | --- | --- | --- |
| B1 | 0.15 | 0.22 | 0.66 |
| B2 | 0.18 | 0.29 | 0.9 |
| B3 | 0.17 | 0.25 | 0.71 |
| B4 | 0.17 | 0.35 | 1.21 |
| B5 | 0.15 | 0.33 | 1.17 |
| B6 | 0.17 | 0.27 | 0.8 |
| B7 | 0.12 | 0.14 | 0.37 |
| B8 | 0.12 | 0.19 | 0.4 |

Target: human ALK1 protein (Sino Biological, #10066-H08H) (human, UniProt P37023 22-118)
Sequence (P37023 22-118 limits assumed): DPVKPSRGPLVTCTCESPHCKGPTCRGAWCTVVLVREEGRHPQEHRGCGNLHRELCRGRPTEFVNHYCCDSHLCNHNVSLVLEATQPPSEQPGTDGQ
Assay: ELISA, coated human ALK1
Experimental: as §1

| Binder | Abs450 1 nM | Abs450 10 nM | Abs450 100 nM |
| --- | --- | --- | --- |
| B1 | 0.05 | 0.07 | 0.07 |
| B2 | 0.08 | 0.08 | 0.08 |
| B3 | 0.06 | 0.07 | 0.06 |
| B4 | 0.07 | 0.07 | 0.11 |
| B5 | 0.09 | 0.29 | 1.17 |
| B6 | 0.05 | 0.12 | 0.52 |
| B7 | 0.15 | 0.78 | 1.42 |

Target: T2, ALK-1/BMPR-2 receptor pair of the …
Assay: cell-based or functional assay
Remark: another data set of the same source

| Binder | % Emax BMP9 | Emax (RLU) |
| --- | --- | --- |
| B9 | 46% | 1.24e+06 RLU |
| B10 | 20% | 557000 RLU |
| B11 | 5% | 124000 RLU |
| B12 | 17% | 469000 RLU |
| B13 | 41% | 1.11e+06 RLU |
| B14 | 33% | 910000 RLU |
| B15 | 0% | 8420 RLU |

Reference: patent US20250002588A1 (DIAGONAL THERAPEUTICS, published 2025)
